The target of assay [1] is T1, EphA5 expressed on H460 human lung carcinoma cells (human, UniProt P54756 25-1037).
T1 construct: whole, on cells; H226 cells served as the EphA5-negative cell line; also called native EphA5 target; endogenous EphA5 expressed on the cell surface
Description: whole cell phage-ELISA, monovalent phage on H460 cells. As for the experimental part: Single scFv clones were produced as monovalent phage and tested for binding on H460 human lung carcinoma (EphA5 positive) and H226 human lung squamous cell carcinoma (EphA5 negative) cell lines in vitro. Briefly, cells were seeded on 96-well plate, blocked and incubated with phage displaying the scFv of interest at different concentrations. After washing, cell surface bound phage were detected with the antiM13-HRP conjugated mAb (GE).

For assay [2], the target named is T2, GRP78 on the surface of MCF-7 human breast cancer cells (human, UniProt P11021 19-654).
T2 construct: whole, on cells; also called surface GRP78; 78 kDa glucose-regulated protein
Description: whole cell phage-ELISA, monovalent phage on MCF-7 cells. How it is done: FIG. 8. Phage binding on cells. […] Single scFv clones were produced as monovalent phage and tested for binding on MCF-7 in vitro. Briefly, cells were seeded on 96-well plate, blocked and incubated with phage displaying the scFv of interest at different concentrations. After washing, cell surface bound phage were detected with the antiM13-HRP conjugated mAb (GE).
Single scFv clones were produced as monovalent phage and tested for binding on MCF-7 in vitro. Briefly, cells were seeded on 96-well plate, blocked and incubated with phage displaying the scFv of interest at different concentrations. After washing, cell surface bound phage were detected with the antiM13-HRP conjugated mAb (GE). […] Anti-GRP78 phage bind specifically to cells expressing surface GRP78.
On the technique in general: An ELISA detects its analyte on a solid surface through an enzyme-linked reagent.

The values that follow come from US20240368258A1 (RUTGERS THE STATE UNIVERSITY OF NEW JERSEY, published 2024).

T1 sequence (P54756 25-1037): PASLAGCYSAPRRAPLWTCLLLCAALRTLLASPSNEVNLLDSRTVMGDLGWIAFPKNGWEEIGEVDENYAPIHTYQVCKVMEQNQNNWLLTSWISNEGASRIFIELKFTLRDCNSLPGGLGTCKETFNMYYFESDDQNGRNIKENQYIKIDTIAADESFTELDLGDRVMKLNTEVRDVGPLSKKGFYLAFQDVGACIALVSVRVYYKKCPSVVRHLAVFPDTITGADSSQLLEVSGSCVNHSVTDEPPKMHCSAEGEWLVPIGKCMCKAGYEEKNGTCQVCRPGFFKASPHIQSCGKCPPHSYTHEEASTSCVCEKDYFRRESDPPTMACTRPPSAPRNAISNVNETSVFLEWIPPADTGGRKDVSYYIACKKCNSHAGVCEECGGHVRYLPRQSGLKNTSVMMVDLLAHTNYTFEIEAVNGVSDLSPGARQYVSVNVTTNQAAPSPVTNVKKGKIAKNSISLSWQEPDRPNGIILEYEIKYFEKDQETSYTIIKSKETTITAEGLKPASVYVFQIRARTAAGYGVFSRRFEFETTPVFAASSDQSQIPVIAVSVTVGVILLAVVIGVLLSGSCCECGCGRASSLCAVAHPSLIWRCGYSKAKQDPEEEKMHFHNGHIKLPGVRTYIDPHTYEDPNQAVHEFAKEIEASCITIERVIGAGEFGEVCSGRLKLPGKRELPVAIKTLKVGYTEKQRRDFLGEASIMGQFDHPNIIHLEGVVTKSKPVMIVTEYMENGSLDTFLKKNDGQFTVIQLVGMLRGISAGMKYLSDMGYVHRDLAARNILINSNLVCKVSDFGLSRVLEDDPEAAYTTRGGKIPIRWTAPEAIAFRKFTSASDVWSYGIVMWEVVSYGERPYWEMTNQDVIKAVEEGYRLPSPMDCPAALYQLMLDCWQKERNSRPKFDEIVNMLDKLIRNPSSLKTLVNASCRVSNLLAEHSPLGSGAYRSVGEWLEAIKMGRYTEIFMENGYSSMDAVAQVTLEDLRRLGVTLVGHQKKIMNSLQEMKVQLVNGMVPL
T2 sequence (P11021 19-654): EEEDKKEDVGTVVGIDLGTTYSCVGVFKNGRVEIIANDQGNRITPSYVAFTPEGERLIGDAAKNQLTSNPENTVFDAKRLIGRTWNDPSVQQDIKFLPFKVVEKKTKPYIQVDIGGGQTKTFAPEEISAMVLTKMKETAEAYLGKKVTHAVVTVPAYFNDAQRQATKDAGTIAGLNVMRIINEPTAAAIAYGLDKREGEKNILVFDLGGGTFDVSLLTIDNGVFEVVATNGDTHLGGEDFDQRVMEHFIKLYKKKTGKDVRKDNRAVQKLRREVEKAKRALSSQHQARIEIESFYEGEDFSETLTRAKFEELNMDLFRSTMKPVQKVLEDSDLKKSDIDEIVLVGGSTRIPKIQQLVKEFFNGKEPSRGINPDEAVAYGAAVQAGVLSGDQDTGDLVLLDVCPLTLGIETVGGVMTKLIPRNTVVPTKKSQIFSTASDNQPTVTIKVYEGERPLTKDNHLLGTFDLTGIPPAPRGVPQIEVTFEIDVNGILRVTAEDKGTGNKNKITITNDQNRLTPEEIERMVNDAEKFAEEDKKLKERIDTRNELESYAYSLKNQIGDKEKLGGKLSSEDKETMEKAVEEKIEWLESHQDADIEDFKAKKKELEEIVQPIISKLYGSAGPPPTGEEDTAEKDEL

B1: antiEphA5_F31 scFv (scFv)
scFv: SYELTQPPSVSVAPGKTARITCEGNNIGSKGVHWYQQKPGQAPALVVYDGSDRPSGIPERFSGSNSGNTATLTISRVEAGDEADYYCQVWDNSSDHPNYVFGTRTKLTVLSGGSTKTSYNVYYTKLSSSGTQVQLVETGGGLVQPGGSLRLSCAASGFTFSSYAMSWVRQAPGKGLEWVSAISGSGGSTYYADSVKGRFTISRDNSKNTLYLQMNSLRAEDTAVYYCARVAAGDYWGQGTLVTVSS
Regarding B1, the binding result in assay [1] was “binds”.

B2: antiGRP78_B4 scFv (scFv)
scFv: SYVLTQPPSVSVAPGKTATITCGGDDIGSKSVHWYQQKPGQAPVLVVYDDGDRPSGIPERFSGSNSGNTATLAISRVEAGDEADYYCQVWDSSSDQYVFGSGTKLTVLSGGSTITSYNVYYTKLSSSGTQVRLQESGPGLVKPSQTLSLTCTVSGGSISSGGYYWSWIRQHPGKGLEWIGYIYYSGSTYYNPSLESRVTISVDTSKNQFSLKLSSVTAADTAVYYCARYSSIDAFEIWGQGTMVTVSS
In the case of B2, in assay [2], the binding result is recorded as “binds”.

B3: antiEphA5_T22 scFv (scFv)
scFv: QPVLTQSSSLSASPGASVSLTCTLRSGINVGPYRMYWYQQKPGSPPQYLLSYKSDSDTQQASGVPSRFSGSKDASANAGILLISGLQSEDEADYYCMIWHNNAVVFGGGTKLTVLSGGSTITSYNVYYTKLSSSGTQVQLVQSGTEVKKPGASVKVSCKVSGYSLSELSMHWVRQAPGKGLEWMGSFDPEDGETTYAQRFQGRVTMTEDTSTDTAYMELRSLTSDDTAVYYCAREIWSGYAYFDLWGRGTLVTVSS
B3: the binding result in assay [1] is given as “binds”.

B4: antiGRP78_F6 scFv (scFv)
scFv: SYELTQPHSVSVAPGQTARITCGGDNIGSKSVHWYQQRPGQAPVLVVYDDSDRPSGIPERFSGSNSENTATLTISGVEAGDEADYYCQVWDSTSHHVVFGGGTKLTVLSGGSTITSYNVYYTKLSSSGTQVQLQQSGPGLVKPPQTLSLTCAISGDSVSSNSAAWNWIRQSPSRGLEWLGRTYYRSKWYNDYAVSVKSRITINPDTSKNQFSLQLNSVTPEDTAVYYCARDPYYYDSSGYYYFDAFDIWGQGTMVTVSS
For B4, in assay [2], the binding result is “binds”.
